In paper PMC9865355:

What was measured:
Assay in all cases: split reporter (BiFC, NanoBiT)
[1] = biological target: GLRaV-3 silencing suppressor p20B, BiFC fusion (grapevine leafroll-associated virus 3 (isolate GP18))
[2] = biological target: GLRaV-3 heat shock protein 70 homolog (HSP70h), BiFC fusion (grapevine leafroll-associated virus 3 (isolate GP18))
[3] = biological target: GLRaV-3 coat protein (CP), BiFC fusion (grapevine leafroll-associated virus 3 (isolate GP18))
[4] = biological target: GLRaV-3 transmembrane movement protein p5, BiFC fusion (grapevine leafroll-associated virus 3 (isolate GP18))

Substance	average MI diff [1]	average MI diff [2]	average MI diff [3]	average MI diff [4]
GLRaV-3 heat shock protein 70 homolog (HSP70h), BiFC fusion (natural protein)	45.5	51.8	34.6	
GLRaV-3 coat protein (CP), BiFC fusion (natural protein)	55.7		27	
GLRaV-3 transmembrane movement protein p5, BiFC fusion (natural protein)				114
GLRaV-3 silencing suppressor p20B, BiFC fusion (natural protein)	92.7			
GLRaV-3 minor coat protein (CPm), BiFC fusion (natural protein)	27.2			
